How the values were obtained:
Type in all cases: biochemical, Nicotiana attenuata
Conditions in all cases: other substrate fixed ((Z)-3-hexenal 1 mM or caffeoylputrescine 80 μM)
[1] = substrate: NCCCCNC(=O)/C=C/c1ccc(O)c(O)c1; experiment: Steady-state Michaelis-Menten kinetics of NaPPO2 (with or without NaBBL2)
Text: (§1) FIG. 50 Michaelis-Menten kinetics of PPO2 and BBL2 with different concentrations of caffeoylputrescine and (Z)-3-hexenal. Steady-state kinetics of caffeoylputrescine or (Z)-3-hexenal conversion to CPH catalyzed by PPO2 purified from E. coli B121 expressing PPO2. Error bars represent the standard error of the means (SEM) from three independent measurements of reaction velocity. The kinetic constants, apparent Km and Vmax (Table 2), and their standard errors were inferred using nonlinear Michaelis-Menten curve-fitting in GraphPad Prism (v. 9.0d). Substrate concentration for (Z)-3-hexenal was 1 mM.
as §1, with “52” for “50”, “mM.Substrate concentration for caffeoylputrescine was 80 μM.” for “mM.”
(§2) Steady-state kinetics of NaPPO1, NaPPo2 and NaBBL2 enzymes: For steady-state kinetic analysis, the ability to oxidize N-caffeoylputrescine was tested in 84 mM acetate buffer (pH 4.8) at 22° C. water bath, containing 1 mM (Z)-3-hexnal, 1 mM FAD, 32 μg NaPPO1/NaPPO2, 30 μg/90 μg NaBBL2 (total volume 100 μL); assays lacking NaBBL2 enzymes served as negative controls.
(§3) The following eight N-caffeoylputrescine final concentrations were each tested at three independent experiments: 10, 20, 40, 60, 80, 120, 140, and 160 μM. Likewise, the ability to catalyze (Z)-3-hexnal was tested in 84 mM acetate buffer (pH 4.8) at 22° C., containing 80 μM N-caffeoylputrescine, 1 mM FAD, 32 μg NaPPO1/NaPPO2, 30 μg/90 μg NaBBL2 (total volume 100 μL); again, assays lacking NaBBL2 enzymes served as negative controls. The following eight (Z)-3-hexnal final concentrations were each tested in three independent experiments: 500, 600, 700, 800, 1000, 1200, 1600, and 2000 μM. The reactions were initiated by the addition of the corresponding recombinant enzymes and the components were mixed by briefly vortexing, and immediately returned to the 22° C. water bath for incubation. After 20 minutes, all the reactions were briefly vortexed, and 100 μL aliquot of each reaction was transferred to a cold Eppendorf tube (−20° C.) containing 100 μL of MeOH (with 600 ng/mL testosterone as an internal standard) to terminate enzyme activity. Samples were centrifuged at 16,000g, 4° C. for 30 min, and 150 μL supernatants were transferred into to 2 mL glass vials for LC/MS (1 μL injection volume) analysis under the same method as described previously. Standard curves for caffeoylputrescine using authentic standards (with 600 ng/mL testosterone as an internal standard) (FIG. 34) were used to calculate the concentrations of substrate and product in each assay sample. The kinetic constants for caffeoylputrescine and (Z)-3-hexnal, apparent Km and Vmax, were inferred using a nonlinear regression in GraphPad Prism 9 (FIG. 34).

[2] = substrate: CC/C=C\CC=O; experiment: as above
Text: as §1
as §1, with “52” for “50”, “mM.Substrate concentration for caffeoylputrescine was 80 μM.” for “mM.”
as §2, §3

[3] = substrate: NCCCCNC(=O)/C=C/c1ccc(O)c(O)c1; experiment: Steady-state Michaelis-Menten kinetics of NaPPO1 (with or without NaBBL2)
Text: as §1, with “49” for “50”, “PPO1” for “PPO2”, “PPO1.” for “PPO2.”
(§4) FIG. 51 Michaelis-Menten kinetics of PPO1 and BBL2 with different concentrations of caffeoylputrescine and (Z)-3-hexenal. Steady-state kinetics of caffeoylputrescine or (Z)-3-hexenal conversion to CPH catalyzed by PPO1 purified from E. coli B121 expressing PPO1. Error bars represent the standard error of the means (SEM) from three independent measurements of reaction velocity. The kinetic constants, apparent Km and Vmax (see Table 2), and their standard errors were inferred using nonlinear Michaelis-Menten curve-fitting in GraphPad Prism (v. 9.0d). Substrate concentration for caffeoylputrescine was 80 μM.
as §2, §3

[4] = substrate: CC/C=C\CC=O; experiment: as above
Text: as §1, with “49” for “50”, “PPO1” for “PPO2”, “PPO1.” for “PPO2.”
as §4, §2, §3

[5] = other: PPO2 + BBL2 (30 μg), pH 4.8, 22.0 °C
[6] = other: PPO2 + BBL2 (90 μg), pH 4.8, 22.0 °C
[7] = other: PPO2 alone, pH 4.8, 22 °C
[8] = other: PPO1 + BBL2 (30 μg), pH 4.8, 22.0 °C
[9] = other: PPO1 + BBL2 (90 μg), pH 4.8, 22.0 °C
[10] = other: PPO1 alone, pH 4.8, 22 °C

B1: NaPPO2 (Nicotiana attenuata) (protein)
chain: MASSSSSTLPLCASKTPSSSFTNTNSSFFAKPSQLFLHGKRNQNFKFSCNANSGEHDKNLDAVDRRNVLLGLGGLYGAANLAPLATAAPIPPPDLKSCSKAHINDQEEVSYSCCPPIPSDMDSVPYYKFPSMPKLRIRPAAHAADEEYIAKYQLATSRMRELDKDPFDPLGFKQQANIHCAYCNGAYKIGGKELQVHFSWLFFPFHRWYLYFYERILGSLINDPTFGLPYWNWDHPKGMRIPPMFDREGSSLYDARRNQSHRNGTIIDLGYFGTEVQTTQLQQMTNNLTIMYRQMITNAPCPLLFFGQPYPLGTDPSPGMGTIENIPHTPVHIWVGSGPNENNVQHGEDMGNFYSAGLDPLFYSHHANVDRMWSEWKALGGKRRDLTHKDWLNSEFFFYDENRNPFRVKVRDCLDSKKMGFDYAPMPTPWRNFKPIRKSNAGKVNLSSVPPASRVFPLSKLDRAISFSIDRPSSSRTQQEKNEQEEMLTFNNIKYDDSKYIRFDVFLNVDKTVNADELDKAEYAGSYTSLPHVHGDNASHVTSVTFQLAITELLEDIGLEDEDTIAVTVVPKTGGEEISIEGVEIKLVDC
In the case of B1, the Km [1, 5] is reported as 206.18 ± 49.95 µM, the Vmax [1, 5] is reported as 0.63 ± 0.09 µM/mg/min and the Km [1, 6] is reported as 207.19 ± 78.07 µM. For the same protein, the Vmax [1, 6] was 0.67 ± 0.17 µM/mg/min, the Km [1, 7] was 204.35 ± 51.37 µM and the Vmax [1, 7] was 0.64 ± 0.10 µM/mg/min. It also gave a Km [2, 5] of 662.39 ± 360.69 µM, a Vmax [2, 5] of 0.021 ± 0.004 µM/mg/min and a Km [2, 6] of 643.31 ± 217.25 µM. For the same protein, the Vmax [2, 6] was 0.024 ± 0.003 µM/mg/min, the Km [2, 7] was 673.35 ± 393.28 µM and the Vmax [2, 7] was 0.023 ± 0.005 µM/mg/min.

B2: NaPPO1 (Nicotiana attenuata) (protein)
chain: MASSSTLPLCTTKTPFSSSTNSFFFAKPSHLFLNGKRNQSFKVSCTGEHDGNQLDAIKEGAVERRNVLLGLGGLYGAANLAPLASAAPVPPPDLKSCGPATITDGPTVSYSCCPPTPDDMDSVPYYKIPRMSKLRKRPAAQDVSEEYIAKYQLATSKMRELDKDPFDPLGFKQQANIHCAYCNDAYTMGDKKLQVHQSWLFFPFHRWYLYFYERILGSLIDDPTFALPYWNWDHPSGMRLPAMFDVEGSSLYDARRNPNVRNGTIIDLGFFGNEVKTNEIQMITNNLILMYRQMITNAPSPLLFFGEPYRFGSKPNPGQGTIENIPHTPVHIWTGTVRDTDLGNGVKSYGEDMGNFYSAGLDPVFYSHHANVDRMWNEWKALGGKRRDLTDKDWLNSEFFFYDENRDPWRVKVRDCLDSKKMGYDYEPKATPWRNFKPGKKTTPGKVNLRSVKPASKVFPLSNLDRAICFSIERPATSRSQQEKDEFEEVLTFKNLKYDDSRYIKFDVFVNADKTVNADDIDKTEYAGSYTSLPHVHGPNNATHVVEVEEFKLAITELLEDCGLEDDDIIAVTVVPKTGGEVVSIDCVLIELKAFY
In the case of B2, the Km [3, 8] is reported as 86.09 ± 15.34 µM, the Vmax [3, 8] is reported as 0.25 ± 0.02 µM/mg/min and the Km [3, 9] is reported as 95.52 ± 28.20 µM. The Vmax [3, 9] was 0.26 ± 0.04 µM/mg/min, the Km [3, 10] was 67.30 ± 10.59 µM and the Vmax [3, 10] was 0.21 ± 0.01 µM/mg/min. The Km [4, 8] was 870.67 ± 381.05 µM, the Vmax [4, 8] was 0.10 ± 0.02 µM/mg/min and the Km [4, 9] was 870.67 ± 381.05 µM. The Vmax [4, 9] was 0.09 ± 0.02 µM/mg/min, the Km [4, 10] was 853.22 ± 257.87 µM and the Vmax [4, 10] was 0.09 ± 0.01 µM/mg/min.
